Test results reported in paper PMC3418312.

Molecular target: GST fused to the OCA2 N-terminal cytoplasmic domain, AA23 variant harboring the P99S mutation (human) (UniProt Q04671)
Experiment: pull-down

Sequence of UniProt Q04671 (Q04671 1-173 P99S): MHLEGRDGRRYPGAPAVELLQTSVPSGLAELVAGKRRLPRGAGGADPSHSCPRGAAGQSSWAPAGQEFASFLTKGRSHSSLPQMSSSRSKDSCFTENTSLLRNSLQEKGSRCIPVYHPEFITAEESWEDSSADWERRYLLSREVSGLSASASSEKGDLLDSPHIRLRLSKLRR

percent bound relative to AA23 (% relative to AA23): 30.1
Substance: AP-3 complex from MNT-1 human melanoma cell lysate (from UniProt O14617 1-1153; O00203 1-1094; Q92572 1-193)
